± gives the standard deviation of the averaged measurements.
Columns and labels:
Saccharomyces cerevisiae [1] = assay: protein stability index of tFT-peptide fusion (C-terminal peptide) (PSI (0-1 scale)); higher = more stable (slower turnover)
Experimental: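 MPS profiling in S. cerevisiae of the tFT-X12 degron library: putative degron peptides plus stable controls, 12 aa, fused to the C-terminus of a sfGFP-mCherry timer. Cells are FACS-sorted into 8 mCherry/sfGFP bins and deep-sequenced. PSI runs from 0 (unstable) to 1 (stable). Backgrounds are wild type, das1Δ and doa10Δ at 30 °C, and wild type, das1Δ, cdc34-1 and cdc53-1 at 37 °C; 2-3 technical replicates each.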

Saccharomyces cerevisiae [2] = assay: as above; settings: genetic background: wild type; temperature: 30 C
[3] = genetic background: cdc34-1, temperature: 37 C
[4] = genetic background: cdc53-1, temperature: 37 C
[5] = genetic background: das1 deletion, temperature: 30 C
[6] = genetic background: das1 deletion, temperature: 37 C
[7] = genetic background: doa10 deletion, temperature: 30 C
[8] = genetic background: wild type, temperature: 30 C
[9] = genetic background: wild type, temperature: 37 C
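Further: PSI is a weighted mean of sequencing reads over stability bins, variants kept only with over 10 reads, mCherry proximal and sfGFP distal, peptide attached via GGGS linker.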

Sequence | protein stability index (Saccharomyces cerevisiae [1]; [3]) | protein stability index (Saccharomyces cerevisiae [1]; [4]) | protein stability index (Saccharomyces cerevisiae [1]; [5]) | protein stability index (Saccharomyces cerevisiae [1]; [6]) | protein stability index (Saccharomyces cerevisiae [1]; [7]) | protein stability index (Saccharomyces cerevisiae [1]; [8]) | protein stability index (Saccharomyces cerevisiae [1]; [9]) | protein stability index (Saccharomyces cerevisiae [2])
PGFCFFLYYCMM | 0.4815 ± 0.0025 | 0.558 ± 0.056 | 0.416 ± 0.031 | 0.562 ± 0.011 | 0.368 ± 0.0053 | 0.412 ± 0.018 | 0.5331 ± 0.00095 | 0.49 ± 0.034
PHGASLCVPPSP | 0.675 ± 0.025 | 0.739 ± 0.0082 | 0.647 ± 0.0089 | 0.7271 ± 0.0072 | 0.645 ± 0.02 | 0.651 ± 0.014 | 0.69931 ± 2.1e-06 | 0.491 ± 0.0074
PHGLKPHCPTPS | 0.685 ± 0.026 | 0.745 ± 0.021 | 0.654 ± 0.016 | 0.7368 ± 0.0034 | 0.674 ± 0.046 | 0.677 ± 0.01 | 0.73 ± 0.042 | 0.728 ± 0.02
PLRVFFLVAFCL | 0.451 ± 0.009 | 0.4799 ± 0.0037 | 0.372 ± 0.024 | 0.535 ± 0.015 | 0.318 ± 0.026 | 0.326 ± 0.05 | 0.471 ± 0.013 | 0.383 ± 0.0073
PLSNLCRVLTFI | 0.557 ± 0.078 | 0.639 ± 0.0012 | 0.575 ± 0.03 | 0.6394 ± 0.0024 | 0.361 ± 0.0071 | 0.369 ± 0.015 | 0.526 ± 0.0056 | 0.4608 ± 0.0029
PLSSHIPVHEAR | 0.659 ± 0.052 | 0.744 ± 0.035 | 0.699 ± 0.017 | 0.706 ± 0.011 | 0.674 ± 0.012 | 0.645 ± 0.025 | 0.6878 ± 0.0027 | 0.718 ± 0.025
PPLTRVPLSISA | 0.434 ± 0.0084 | 0.465 ± 0.016 | 0.292 ± 0.04 | 0.492 ± 0.012 | 0.267 ± 0.0075 | 0.305 ± 0.034 | 0.46 ± 0.005 | 0.413 ± 0.052
PPPPLATTSAPL | 0.687 ± 0.046 | 0.74266 ± 0.0006 | 0.661 ± 0.0092 | 0.7118 ± 0.0031 | 0.668 ± 0.029 | 0.665 ± 0.015 | 0.6919 ± 0.0013 | 0.719 ± 0.04
PPSLFLLLKVFF | 0.321 ± 0.0034 | 0.362 ± 0.012 | 0.279 ± 0.037 | 0.458 ± 0.005 | 0.268 ± 0.0069 | 0.223 ± 0.023 | 0.357 ± 0.0065 | 0.3254 ± 0.0024
PPSPPPLSASVP | 0.661 ± 0.04 | 0.698 ± 0.025 | 0.667 ± 0.053 | 0.698 ± 0.02 | 0.677 ± 0.024 | 0.669 ± 0.015 | 0.7 ± 0.0078 | 0.578 ± 0.14
PRHLTPPPAPSA | 0.704 ± 0.059 | 0.721 ± 0.024 | 0.675 ± 0.022 | 0.708 ± 0.013 | 0.66 ± 0.038 | 0.659 ± 0.022 | 0.6742 ± 0.0042 | 0.642 ± 0.24
PRHVLWLRRLLF | 0.68 ± 0.052 | 0.7289 ± 0.0067 | 0.622 ± 0.02 | 0.782 ± 0.029 | 0.2 ± 0.016 | 0.235 ± 0.024 | 0.5371 ± 0.0031 | 0.334 ± 0.0067
PRLRPQTVAFLS | 0.68 ± 0.038 | 0.732 ± 0.013 | 0.651 ± 0.011 | 0.721 ± 0.013 | 0.28 ± 0.02 | 0.313 ± 0.016 | 0.5179 ± 0.001 | 0.2648 ± 0.0012
PVGLMKRFRLFI | 0.698 ± 0.088 | 0.727 ± 0.02 | 0.615 ± 0.031 | 0.716 ± 0.023 | 0.332 ± 0.012 | 0.364 ± 0.031 | 0.626 ± 0.018 | 0.455 ± 0.058
PVPPSLLHRPPF | 0.679 ± 0.056 | 0.736 ± 0.045 | 0.682 ± 0.014 | 0.722 ± 0.018 | 0.677 ± 0.011 | 0.673 ± 0.021 | 0.727 ± 0.027 | 0.33 ± 0.014
PWAHIRTVQTYV | 0.673 ± 0.0069 | 0.716 ± 0.013 | 0.595 ± 0.011 | 0.7626 ± 0.0066 | 0.286 ± 0.0081 | 0.314 ± 0.033 | 0.461 ± 0.027 | 0.437 ± 0.0069
PWFSWLLYSFLF | 0.546 ± 0.024 | 0.529 ± 0.031 | 0.526 ± 0.013 | 0.651 ± 0.029 | 0.535 ± 0.016 | 0.458 ± 0.026 | 0.551 ± 0.011 | 0.501 ± 0.0028
PYSLYASSSSPL | 0.696 ± 0.045 | 0.7492 ± 0.0029 | 0.68 ± 0.023 | 0.748 ± 0.019 | 0.6716 ± 0.0016 | 0.676 ± 0.017 | 0.716 ± 0.015 | 0.727 ± 0.024
QCSVRLKEIQFS | 0.664 ± 0.032 | 0.726 ± 0.011 | 0.673 ± 0.03 | 0.72 ± 0.028 | 0.209 ± 0.023 | 0.276 ± 0.0056 | 0.481 ± 0.045 | 0.346 ± 0.1
QERKILGRIKQA | 0.51 ± 0.078 | 0.6853 ± 0.00099 | 0.651 ± 0.05 | 0.7081 ± 0.0052 | 0.0853 ± 0.0029 | 0.0987 ± 0.035 | 0.161 ± 0.026 | 0.265 ± 0.12
